Data: paper PMC3352918, “Mechanism of Nucleic Acid Unwinding by SARS-CoV Helicase” (PLoS ONE, 2012)

Molecular target: T1, GST-nsp13 (Glutathione S-Transferase-tagged nsp13 of SARS-CoV) (SARS-CoV, UniProt P0C6X7 5302-5902)
T1 construct: also called SARS-CoV helicase; non-structural protein 13; not shown: GST, N-terminal, kept
Assay: pull-down
Details: both partners purified

B1: nsp12-H6 (C-terminal hexahistidine containing nsp12, SARS-CoV RNA-dependent RNA polymerase) (enzyme)
chain: SADASTFLNRVCGVSAARLTPCGTGTSTDVVYRAFDIYNEKVAGFAKFLKTNCCRFQEKDEEGNLLDSYFVVKRHTMSNYQHEETIYNLVKDCPAVAVHDFFKFRVDGDMVPHISRQRLTKYTMADLVYALRHFDEGNCDTLKEILVTYNCCDDDYFNKKDWYDFVENPDILRVYANLGERVRQSLLKTVQFCDAMRDAGIVGVLTLDNQDLNGNWYDFGDFVQVAPGCGVPIVDSYYSLLMPILTLTRALAAESHMDADLAKPLIKWDLLKYDFTEERLCLFDRYFKYWDQTYHPNCINCLDDRCILHCANFNVLFSTVFPPTSFGPLVRKIFVDGVPFVVSTGYHFRELGVVHNQDVNLHSSRLSFKELLVYAADPAMHAASGNLLLDKRTTCFSVAALTNNVAFQTVKPGNFNKDFYDFAVSKGFFKEGSSVELKHFFFAQDGNAAISDYDYYRYNLPTMCDIRQLLFVVEVVDKYFDCYDGGCINANQVIVNNLDKSAGFPFNKWGKARLYYDSMSYEDQDALFAYTKRNVIPTITQMNLKYAISAKNRARTVAGVSICSTMTNRQFHQKLLKSIAATRGATVVIGTSKFYGGWHNMLKTVYSDVETPHLMGWDYPKCDRAMPNMLRIMASLVLARKHNTCCNLSHRFYRLANECAQVLSEMVMCGGSLYVKPGGTSSGDATTAYANSVFNICQAVTANVNALLSTDGNKIADKYVRNLQHRLYECLYRNRDVDHEFVDEFYAYLRKHFSMMILSDDAVVCYNSNYAAQGLVASIKNFKAVLYYQNNVFMSEAKCWTETDLTKGPHEFCSQHTMLVKQGDDYVYLPYPDPSRILGAGCFVDDIVKTDGTLMIERFVSLAIDAYPLTKHPNQEYADVFHLYLQYIRKLHDELTGHMLDMYSVMLTNDNTSRYWEPEFYEAMYTPHTVLQ
notes: also called SARS-CoV polymerase; SARS-CoV RdRp
Does B1 bind?
Result: binds
